From patent US20230312744A1, “Modulatory Substance of Tumor Immune Microenvironment, and Preventive, Diagnostic and/or Therapeutic Utilization of the Same” (The University Of Tokyo, priority 2020, published 2023)

Legend:
Cxcl1 mRNA from PECs = test: PECs stimulated with supernatant of dead SL4 cells containing antibody, Cxcl1 mRNA by RT-qPCR; assay type: cell-based, mouse; conditions: PECs stimulated 2 hours with culture supernatant of SL4 cells containing 55F3, vs control IgG, FIG. 12(b)
Protocol: In FIG. 12(b), PECs (2×10^5 cells) were stimulated with a supernatant of dead SL4 cells comprising the 55F3 antibody or control IgG. After the stimulation for 2 hours, the expressed Cxcl1 mRNA was quantified by RT-qPCR. n=3, and Sup: culture supernatant. In FIG. 12(c), TCTP WT SL4 cells or TCTP KO SL4 cells ([…]) were subcutaneously transplanted into C57BL/6 mice. After the transplantation, DHA (50 mg/kg) or DMSO was intraperitoneally administered to the mice every day (n=6). In FIG. 12(d), (left view) the expression level of TCTP in the interstitial area of normal large intestinal tissues was compared with the expression level of TCTP in the interstitial area of colorectal cancer tissues. In FIG. 12(d), (right view) a normal colon crypt was compared with a neoplastic lesion. […] Spearman r: spearman correlation coefficients. *P<0.05, **P<0.01. Regarding FIG. 12(b), repeated measures one-way ANOVA with Dunnett's multiple comparisons test. Regarding FIG. 12(c), repeated measures one-way ANOVA with Tukey's multiple comparisons test. Regarding FIG. 12(d), unpaired two-sided Student's t-test. NS indicates “no significant difference.” The data are shown as a mean value ±[…] (s.e.m.).
RAW264.7 cells, the mouse melanoma cell line B16F10 cells, the mouse fibrosarcoma cell line Meth-A cells, and HEK293T cells were obtained from RIKEN BioResource Center (Japan). […]

mouse TCTP = target: T1, mouse TCTP (Mus musculus, UniProt P63028); test: Immunoblotting of whole cell lysate of TCTP WT / TCTP KO SL4 cells using the 55F3 monoclonal antibody; assay type: binding; conditions: lysate of TCTP WT vs TCTP KO SL4 cells, FIG. 12(a)
T1 construct: preparing the whole cell lysate of TCTP WT SL4 cells (WT) or TCTP KO SL4 cells (KO), followed by immunoblotting; endogenous in cells; host or cells: SL4 mouse colon carcinoma cells (TCTP WT; TCTP KO as negative control)
T1 sequence (P63028 1-172): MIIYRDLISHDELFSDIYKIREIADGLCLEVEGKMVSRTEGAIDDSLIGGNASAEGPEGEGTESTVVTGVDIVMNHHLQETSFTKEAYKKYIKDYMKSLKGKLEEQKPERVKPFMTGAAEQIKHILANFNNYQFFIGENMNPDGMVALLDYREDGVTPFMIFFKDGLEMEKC
Protocol: In FIG. 12(b), PECs (2×10^5 cells) were stimulated with a supernatant of dead SL4 cells comprising the 55F3 antibody or control IgG. After the stimulation for 2 hours, the expressed Cxcl1 mRNA was quantified by RT-qPCR. n=3, and Sup: culture supernatant. In FIG. 12(c), TCTP WT SL4 cells or TCTP KO SL4 cells ([…]) were subcutaneously transplanted into C57BL/6 mice. After the transplantation, DHA (50 mg/kg) or DMSO was intraperitoneally administered to the mice every day (n=6). In FIG. 12(d), (left view) the expression level of TCTP in the interstitial area of normal large intestinal tissues was compared with the expression level of TCTP in the interstitial area of colorectal cancer tissues. In FIG. 12(d), (right view) a normal colon crypt was compared with a neoplastic lesion. […] Spearman r: spearman correlation coefficients. *P<0.05, **P<0.01. Regarding FIG. 12(b), repeated measures one-way ANOVA with Dunnett's multiple comparisons test. Regarding FIG. 12(c), repeated measures one-way ANOVA with Tukey's multiple comparisons test. […]
Immunoblot analysis was performed according to the previous report (Inoue et al., Nature 434, 243-249, doi: 10.1038/nature03308 (2005)). β-Actin (cat# A5441) was purchased from Sigma-Aldrich. […] Immunoblotting signals were detected by FUSION Solo S (Vilber-Lourmat), and were then analyzed by FUSION Capt Advanced software (Vilber-Lourmat). […]

B1: 55F3: Mouse monoclonal antibody against human TCTP peptide SEQ ID NO: 25; CDRs SEQ ID NO: 1-6, VH SEQ ID NO: 19, VL SEQ ID NO: 22 (antibody, listed as Mus musculus)
VH: MRVLILLWLFTAFPGILSDVQLQESGPGLVKPSQSLSLTCTATGYSIASDYAWNWIRQFPGNKLEWMGYINYSGSTGYNPSLKSRISITRDTSKNQFFLQLNSVTTEDTATYYCARFEAGYWGQGTTLTVSSAKTTPPSVYPLAPGSAAQTNSMVTLGCLVKGYFPEPVT
VL: MDMRTPAQFLGILLLWFPGIKCDIKMTQSPSSMSASLGERVTITCKASQDINRYLSWFQQKPGKSPKTLIYRANRLVDGVPSRFSGSGSGQDYSLTISSLEYGDMGIYYCLQYNEFPLTFGAGTKLELKRADAAPTVSIFPPSSEQLTSGGASVVCFLN
B1 was tested, and the “expression of Cxcl1 mRNA from PECs” value (Cxcl1 mRNA from PECs) was “suppressed” and the “species crossing property to mouse TCTP” value (mouse TCTP) was “has species crossing property to mouse TCTP”.
